One block for each binder: values may come before it.
What was measured:
[1] = target: T1, EGFP-Arc (EGFP tag at the N-terminus), expressed in U2OS cells (mouse), Q9WV31; assay: fluorescence fluctuation spectroscopy (brightness analysis); single-point FFS in the cytoplasm of living U2OS cells, ~200 nM to ~5 µM EGFP-tagged Arc; normalized brightness b against EGFP alone gives the average stoichiometry; details: remark: other sources report otherwise
T1 chain: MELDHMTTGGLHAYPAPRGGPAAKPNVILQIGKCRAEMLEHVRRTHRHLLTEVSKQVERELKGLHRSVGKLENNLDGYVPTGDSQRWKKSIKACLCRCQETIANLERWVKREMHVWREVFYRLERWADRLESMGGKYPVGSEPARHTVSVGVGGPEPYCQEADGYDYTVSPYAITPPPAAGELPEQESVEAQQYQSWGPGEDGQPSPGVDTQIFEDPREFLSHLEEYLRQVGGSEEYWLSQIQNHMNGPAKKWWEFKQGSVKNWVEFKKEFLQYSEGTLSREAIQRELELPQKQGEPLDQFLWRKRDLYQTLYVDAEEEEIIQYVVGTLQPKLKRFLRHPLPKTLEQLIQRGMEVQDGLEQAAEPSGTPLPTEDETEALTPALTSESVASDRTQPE

[2] = target: T2, Arc-EGFP (EGFP tag at the C-terminus), expressed in U2OS cells (mouse), Q9WV31; assay: as above; details: remark: other sources report otherwise
T2 chain: T1 chain

stoichiometry N (Arc molecules per particle) [1]: 1 to 3
B1: EGFP-Arc (EGFP tag at the N-terminus), expressed in U2OS cells, Q9WV31 1-396 (natural protein)
chain: T1 chain

stoichiometry N (Arc molecules per particle) [2]: 1 to 3
B2: Arc-EGFP (EGFP tag at the C-terminus), expressed in U2OS cells, Q9WV31 1-396 (natural protein)
chain: T1 chain

Reference: publication PMC11203824
